Assay results reported in patent publication US20110318339A1 (FABRUS, published 2011).

Columns and labels:
[1] = molecular target: T1, recombinant human DLL4 (Cat# 1506-D4/CF, R&D Systems) (human, UniProt Q9NR61 27-529); test: ELISA, DLL4 coated, Fab 0.74 nM
T1 construct: Bought protein; also called hDLL4; rHuman DLL4
Experimental: (§1) The plate was blocked by adding 1% BSA in Tris-buffered Saline Tween (TBST) and incubating for 1 hour at room temperature followed by washing 2 times with 150 μl TBST. A Fab antibody was serially diluted in 1% BSA in PBS. A 50 μl aliquot of each serial dilution was added, in triplicate, to each well and the plate was incubated for 1 hour at room temperature followed by washing 2 times with TBST. 50 μl of either goat anti-human kappa HRP conjugated secondary antibody (Cat # A7164-1 mL, Sigma-Aldrich) or goat anti-human lambda HRP conjugated secondary antibody (Cat # L1645-1 ml, Sigma-Aldrich), diluted 1:1000 in 1% BSA in PBS, was added to each well and the plate was incubated for 30 minutes at room temperature followed by washing 3 times with 200 μl TBST. Finally, 50 μl TMB one-component reagent (Cat # TMBW-1000-01, BioFax) was added and allowed to develop for 2 minutes at room temperature. The reaction was immediately halted by the addition of 50 μl 0.5M H₂SO₄ and the absorbance at 450 nm was measured using an ELISA plate reader.

[2] = molecular target: T1, recombinant human DLL4 (Cat# …); test: ELISA, DLL4 coated, Fab 100 nM
Experimental: (§2) In this example, an ELISA binding assay was used to assess the dose-dependent binding of Fab antibodies to recombinant human DLL4 and recombinant mouse DLL4.
as §1

[3] = molecular target: T1, recombinant human DLL4 (Cat# …); test: ELISA, DLL4 coated, Fab 2.22 nM
Experimental: as §1

[4] = molecular target: T1, recombinant human DLL4 (Cat# …); test: ELISA, DLL4 coated, Fab 50 nM
Experimental: as §2, §1

[5] = molecular target: T1, recombinant human DLL4 (Cat# …); test: ELISA, DLL4 coated, Fab 25 nM
Experimental: as §1

[6] = molecular target: T1, recombinant human DLL4 (Cat# …); test: ELISA, DLL4 coated, Fab 20 nM
Experimental: as §1

[7] = molecular target: T1, recombinant human DLL4 (Cat# …); test: ELISA, DLL4 coated, Fab 12.5 nM
Experimental: as §2, §1

[8] = molecular target: T1, recombinant human DLL4 (Cat# …); test: ELISA, DLL4 coated, Fab 6.67 nM
Experimental: as §1

[9] = molecular target: T1, recombinant human DLL4 (Cat# …); test: SPR (ProteOn), hDLL4 amine-coupled on chip
Experimental: In this example, the binding affinities of selected anti-DLL4 Fabs to recombinant human DLL4 (hDLL4, Cat# 1506-D4/CF, R&D Systems) were analyzed using Surface Plasmon Resonance (SPR) (Biosensor Tools, Salt Lake City, Utah). The Fabs analyzed include germline-derived antibodies and germline-modified DLL4 antibodies. Recombinant hDLL4 was immobilized on a SPR chip using amine coupling at three different surface densities. The Fabs were serially diluted 3-fold, with an initial concentration of 1 μM. Binding studies were run on a ProteOn system using a GLM sensor chip in 10 mM HEPES, pH 7.4, 150 mM NaCl, 0.01% Tween-20, and 0.1 mg/ml BSA at 25° C. The response data from each surface was globally fit to determine the binding constants.

[10] = molecular target: T2, Recombinant Human DLL4 (Cat# 1506-D4/CF, R&D Systems) (human, UniProt Q9NR61 27-529); test: ELISA, DLL4 coated
T2 construct: Bought protein; also called rHuman DLL4; hDLL4

Binder	ELISA absorbance at 450 nm [1] [A450]	ELISA absorbance at 450 nm [3] [A450]	ELISA absorbance at 450 nm [6] [A450]	ELISA absorbance at 450 nm [8] [A450]	also measured
Fab VH5-51_IGHD5-18*01>3_IGHJ4*01 G100K/G104T & V3-4_IGLJ1*01 (Fab, V domains shown, Fab made in E. coli: VH on CH1 with His6 and Flag tags (Plasmid A), VL on lambda CL (Plasmid E); also called H: KT & L: wt) VH: EVQLVQSGAEVKKPGESLKISCKGSGYSFTSYWIGWVRQMPGKGLEWMGIIYPGDSDTRYSPSFQGQVTISADKSISTAYLQWSSLKASDTAMYYCARRKYSYTYDYFDYWGQGTLVTVSS VL: QTVVTQEPSFSVSPGGTVTLTCGLSSGSVSTSYYPSWYQQTPGQAPRTLIYSTNTRSSGVPDRFSGSILGNKAALTITGAQADDESDYYCVLYMGSGISYVFGTGTKVTVL	0.019	0.014	0.018	0.042	ELISA absorbance at 450 nm [2]: 0.18 A450; ELISA absorbance at 450 nm [4]: 0.18 A450; ELISA absorbance at 450 nm [5]: 0.16 A450; ELISA absorbance at 450 nm [7]: 0.18 A450
Fab VH5-51_IGHD5-18*01>3_IGHJ4*01 G100K/G104T G24T/S28R/G35V & V3-4_IGLJ1*01 M94R/S96M (Fab, V domains shown, Fab made in E. coli: VH on CH1 with His6 and Flag tags (Plasmid A), VL on lambda CL (Plasmid E); also called H: KT TRV & L: RM; KT TRV-V3-4 RM) VH: EVQLVQSGAEVKKPGESLKISCKTSGYRFTSYWIVWVRQMPGKGLEWMGIIYPGDSDTRYSPSFQGQVTISADKSISTAYLQWSSLKASDTAMYYCARRKYSYTYDYFDYWGQGTLVTVSS VL: QTVVTQEPSFSVSPGGTVTLTCGLSSGSVSTSYYPSWYQQTPGQAPRTLIYSTNTRSSGVPDRFSGSILGNKAALTITGAQADDESDYYCVLYRGMGISYVFGTGTKVTVL	0.006	0.028	0.122	0.062	Kd [9]: 0.0403 µM; koff [9]: 0.101 s⁻¹; kon [9]: 2.53e+06 M⁻¹ s⁻¹
Fab VH5-51_IGHD5-18*01>3_IGHJ4*01 G100K/G104T S28R & V3-4_IGLJ1*01 (Fab, V domains shown, Fab made in E. coli: VH on CH1 with His6 and Flag tags (Plasmid A), VL on lambda CL (Plasmid E); also called H: KT S28R & L: wt) VH: EVQLVQSGAEVKKPGESLKISCKGSGYRFTSYWIGWVRQMPGKGLEWMGIIYPGDSDTRYSPSFQGQVTISADKSISTAYLQWSSLKASDTAMYYCARRKYSYTYDYFDYWGQGTLVTVSS VL: QTVVTQEPSFSVSPGGTVTLTCGLSSGSVSTSYYPSWYQQTPGQAPRTLIYSTNTRSSGVPDRFSGSILGNKAALTITGAQADDESDYYCVLYMGSGISYVFGTGTKVTVL	0	0	0.009	0.003	ELISA absorbance at 450 nm [2]: 0.26 A450; Kd [9]: 0.114 µM; koff [9]: 0.0845 s⁻¹; kon [9]: 740000 M⁻¹ s⁻¹; ELISA absorbance at 450 nm [4]: 0.23 A450; ELISA absorbance at 450 nm [5]: 0.2 A450; ELISA absorbance at 450 nm [7]: 0.18 A450
Fab H:APFF & L:NDH (Fab, V domains shown, Fab, kappa light chain; also called VH1-46_IGHD6-6*01_IGHJ1*01 S102A/S103P/S104F/H111F & L6_IGKJ1*01 S28N/S30D/S31H) VH: QVQLVQSGAEVKKPGASVKVSCKASGYTFTSYYMHWVRQAPGQGLEWMGIINPSGGSTSYAQKFQGRVTMTRDTSTSTVYMELSSLRSEDTAVYYCAREEYAPFSAEYFQFWGQGTLVTVSS VL: EIVLTQSPATLSLSPGERATLSCRASQNVDHYLAWYQQKPGQAPRLLIYDASNRATGIPARFSGSGSGTDFTLTISSLEPEDFAVYYCQQRSNWPPWTFGQGTKVEIKR					fold increased affinity against Fab mutant APFF (H:APFF & L:wt) [10]: 4 fold
Fab VH1-46_IGHD6-6*01_IGHJ1*01 S102A/S103P/S104F/H111F I51A/N52L/S54T/G56H & L6_IGKJ1*01 S28N/S30D/S31H S52L/A55S (Fab, V domains shown, Fab made in E. coli: VH on CH1 with His6 and Flag tags (Plasmid A), VL on kappa CL (Plasmid C); also called H: APFF ALTH & L: NDH LS) VH: QVQLVQSGAEVKKPGASVKVSCKASGYTFTSYYMHWVRQAPGQGLEWMGIALPTGHSTSYAQKFQGRVTMTRDTSTSTVYMELSSLRSEDTAVYYCAREEYAPFSAEYFQFWGQGTLVTVSS VL: EIVLTQSPATLSLSPGERATLSCRASQNVDHYLAWYQQKPGQAPRLLIYDALNRSTGIPARFSGSGSGTDFTLTISSLEPEDFAVYYCQQRSNWPPWTFGQGTKVEIKR	0.046	0.04	0.458	0.282	
Fab VH1-46_IGHD6-6*01_IGHJ1*01 S102A/S103P/S104F/H111F I51A/N52L/S54T/G56H & L6_IGKJ1*01 S28N/S30D/S31H S52L/A55G (Fab, V domains shown, Fab made in E. coli: VH on CH1 with His6 and Flag tags (Plasmid A), VL on kappa CL (Plasmid C); also called H: APFF ALTH & L: NDH LG) VH: QVQLVQSGAEVKKPGASVKVSCKASGYTFTSYYMHWVRQAPGQGLEWMGIALPTGHSTSYAQKFQGRVTMTRDTSTSTVYMELSSLRSEDTAVYYCAREEYAPFSAEYFQFWGQGTLVTVSS VL: EIVLTQSPATLSLSPGERATLSCRASQNVDHYLAWYQQKPGQAPRLLIYDALNRGTGIPARFSGSGSGTDFTLTISSLEPEDFAVYYCQQRSNWPPWTFGQGTKVEIKR	0.028	0.069	0.39	0.212	
Fab VH1-46_IGHD6-6*01_IGHJ1*01 S102A/S103P/S104F/H111F I51V/N52L/S54T/G56H & L6_IGKJ1*01 S28N/S30D/S31H S52L/A55G (Fab, V domains shown, Fab made in E. coli: VH on CH1 with His6 and Flag tags (Plasmid A), VL on kappa CL (Plasmid C); also called H: APFF VLTH & L: NDH LG) VH: QVQLVQSGAEVKKPGASVKVSCKASGYTFTSYYMHWVRQAPGQGLEWMGIVLPTGHSTSYAQKFQGRVTMTRDTSTSTVYMELSSLRSEDTAVYYCAREEYAPFSAEYFQFWGQGTLVTVSS VL: EIVLTQSPATLSLSPGERATLSCRASQNVDHYLAWYQQKPGQAPRLLIYDALNRGTGIPARFSGSGSGTDFTLTISSLEPEDFAVYYCQQRSNWPPWTFGQGTKVEIKR	0.397	0.755	1.06	0.916	
Fab H:APFF G56A & L:NDH (Fab, V domains shown, Fab, kappa light chain) VH: QVQLVQSGAEVKKPGASVKVSCKASGYTFTSYYMHWVRQAPGQGLEWMGIINPSGASTSYAQKFQGRVTMTRDTSTSTVYMELSSLRSEDTAVYYCAREEYAPFSAEYFQFWGQGTLVTVSS VL: EIVLTQSPATLSLSPGERATLSCRASQNVDHYLAWYQQKPGQAPRLLIYDASNRATGIPARFSGSGSGTDFTLTISSLEPEDFAVYYCQQRSNWPPWTFGQGTKVEIKR					fold greater affinity against H:APFF & L:wt [10]: 8 fold
Fab VH1-46_IGHD6-6*01_IGHJ1*01 S102A/S103P/S104F/H111F I51V/N52L/S54T/G56H & L6_IGKJ1*01 S28N/S30D/S31H (Fab, V domains shown, Fab made in E. coli: VH on CH1 with His6 and Flag tags (Plasmid A), VL on kappa CL (Plasmid C); also called H: APFF VLTH & L: NDH) VH: QVQLVQSGAEVKKPGASVKVSCKASGYTFTSYYMHWVRQAPGQGLEWMGIVLPTGHSTSYAQKFQGRVTMTRDTSTSTVYMELSSLRSEDTAVYYCAREEYAPFSAEYFQFWGQGTLVTVSS VL: EIVLTQSPATLSLSPGERATLSCRASQNVDHYLAWYQQKPGQAPRLLIYDASNRATGIPARFSGSGSGTDFTLTISSLEPEDFAVYYCQQRSNWPPWTFGQGTKVEIKR	0.288	0.608	0.979	0.776	Kd [9]: 0.0027 µM; koff [9]: 0.00113 s⁻¹; kon [9]: 430000 M⁻¹ s⁻¹
Fab VH1-46_IGHD6-6*01_IGHJ1*01 S102A/S103P/S104F/H111F N52L/S54T/G56H & L6_IGKJ1*01 S28N/S30D/S31H S52L/A55S (Fab, V domains shown, Fab made in E. coli: VH on CH1 with His6 and Flag tags (Plasmid A), VL on kappa CL (Plasmid C); also called H: APFF LTH & L: NDH LS) VH: QVQLVQSGAEVKKPGASVKVSCKASGYTFTSYYMHWVRQAPGQGLEWMGIILPTGHSTSYAQKFQGRVTMTRDTSTSTVYMELSSLRSEDTAVYYCAREEYAPFSAEYFQFWGQGTLVTVSS VL: EIVLTQSPATLSLSPGERATLSCRASQNVDHYLAWYQQKPGQAPRLLIYDALNRSTGIPARFSGSGSGTDFTLTISSLEPEDFAVYYCQQRSNWPPWTFGQGTKVEIKR	0.398	0.557	1.05	0.916	
Fab H:APFF LTH & L:NDH (Fab, V domains shown, Fab, kappa light chain) VH: QVQLVQSGAEVKKPGASVKVSCKASGYTFTSYYMHWVRQAPGQGLEWMGIILPTGHSTSYAQKFQGRVTMTRDTSTSTVYMELSSLRSEDTAVYYCAREEYAPFSAEYFQFWGQGTLVTVSS VL: EIVLTQSPATLSLSPGERATLSCRASQNVDHYLAWYQQKPGQAPRLLIYDASNRATGIPARFSGSGSGTDFTLTISSLEPEDFAVYYCQQRSNWPPWTFGQGTKVEIKR					fold increased binding affinity against the antibody mutants with heavy chain H:APFF ALTH [10]: ~10 fold
